Experimental data from the supplement of paper PMC12042874.
± gives the uncertainty stated by the source.

Assay: amyloid nucleation score (Sup35N fusion, yeast selection) (log enrichment); library NNK2; higher = more nucleation; inactive = no reads after selection
In short: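 DiMSum was used to calculate nucleation scores as log enrichment of output over input reads, centred on the mode score of non-aggregating sequences. Sequences with fewer than 100 input reads were not scored. Input and output came from Illumina sequencing of plasmid inserts in psi-negative yeast expressing peptides of 20 random codons fused to Sup35N, induced 24 hours with 100 μM copper sulfate and then grown 7 days at 30°C on medium lacking adenine and uracil.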

Row | Substance | amyloid nucleation score
1 | LVHRCRYGLLTGLFEGQPVM | -1.12 ± 1.1
2 | YGAWCERLKRFSRLVWSDGR | 0.312 ± 0.54
3 | LFVYIFVVKVDF | 0.959 ± 0.27
4 | RVKYLDDCQYMLFRWCRMFT | 0.209 ± 0.29
5 | KNCVHE | -0.076 ± 0.79
6 | VLMDASTSVYTRSLMWKYMR | -0.162 ± 0.76
7 | YAFSCFKSNVFWKGTGNRRG | -0.973 ± 0.63
8 | YPYSSWRGSVHCELGINGMG | 0.29 ± 0.77
9 | SVVFLRLGYGKLRV | -0.159 ± 1
10 | CNSYEYLRN | -0.035 ± 0.76
11 | GESSPE | 0.343 ± 0.8
12 | RFNTCLDS | -0.005 ± 0.29
13 | EEYFDWSMKCKLIYINRVPL | -0.358 ± 1
14 | RKAFIHVDKRLDSSIGTRSG | 0.321 ± 0.41
15 | SMYSSASMQWSDRFNILYEV | -0.291 ± 0.31
16 | VIPKHESISILFPAVYPPFE | 0.031 ± 0.23
17 | IEGTVRYYPVSNFT | inactive
18 | LHFSICMPTGCDVPPGDKGG | inactive
19 | NHITMFDRVSYYVKLKHYVA | 0.452 ± 0.37
20 | VLRMRGCW | 6.738 ± 0.049
21 | WSMVTVLRGDRG | 0.525 ± 0.54
22 | MANYYLCFYFVLVMRQMKFT | -1.18 ± 0.62

Row | Substance | amyloid nucleation score
23 | IVFVLLSYYLL | 3.4 ± 0.037
24 | GVREYMH | 0.544 ± 0.28
25 | WLNVDYSYSALRLHNCNGLM | 1.64 ± 0.085
26 | MGRDLLASDSTCVGRVQGKL | 0.965 ± 0.57
27 | CCFRLLGYAGN | -0.961 ± 0.5
28 | RMKVDTLIWTPDWMEFVSII | -0.824 ± 1.1
29 | WASFW | -0.725 ± 0.45
30 | VDTELKVNSYRPGWTEHSRT | 0.738 ± 0.21
31 | GYRYHLWHVT | inactive
32 | INWCYAPRLYFNHRWWDYCG | 6.586 ± 0.054
33 | YGMKSRVECVVY | -0.949 ± 0.63
34 | SKNSYSAHPKL | 4.83 ± 0.06
35 | SAFLRIINACTATFHENSAR | inactive
36 | PISNAYCMGTNRSLRIGIRC | 0.641 ± 0.21
37 | LNLLNPWYSCKQSRVYNGYI | -1.31 ± 0.54
38 | IHVPIQ | -0.046 ± 0.54
39 | MGCDGVSVLRWCTHIELGME | -0.782 ± 0.31
40 | SISCSADFVFNCSHGHNTVP | 6.17 ± 0.069
41 | IHMWYSDG | -1.25 ± 0.75
42 | RVIGVWILIAWQRQV | 0.822 ± 0.66
43 | LCVCRPGRRSIYLMVWVWWN | -0.513 ± 0.53
44 | SGISKTGLYASYWGYLSGGK | -0.453 ± 0.27

Row | Substance | amyloid nucleation score
45 | IFHHPNHIHVDQFSPLLFYE | -0.64 ± 0.79
46 | FMGRMTLGHKNAWVSSDRH | -1.33 ± 0.79
47 | SVCELKW | 0.53 ± 0.38
48 | TDYHMFYRLDCLPLTTTCPV | 4.88 ± 0.087
49 | LVYNI | -0.081 ± 1.1
50 | PVIFGTR | 0.192 ± 1
51 | LIAKMAIKFKGDAQF | 4.05 ± 0.09
52 | QLVPRHNGTAKGCSGPLTRV | 0.402 ± 0.26
53 | EGFLRIVKVVTTIWWTGLFC | -1.23 ± 1
54 | QNTMALKHNICPEHSSMWNS | 2.64 ± 0.066
55 | TFMAIRSLNSSASGWATGF | 3.01 ± 0.049
56 | SFNNTHVVPMYLFF | 5.402 ± 0.047
57 | LYHVISSNWHEDNDMT | 0.003 ± 0.23
58 | LQKWYGDD | 1.58 ± 0.34
59 | IAPLWPYLNPYRVIFF | inactive
60 | VFVSCYYAYLLRDTTNFYVG | inactive
61 | YSYSSFLKVSGLSSDRLGYI | -0.133 ± 0.49
62 | LVQFHRLPRTRWGEFVRGDH | 3.84 ± 0.092
63 | KILFPVR | -0.927 ± 1
64 | CLISRLIVL | -0.038 ± 0.79
65 | RCKWVRGVSRMPNHWN | 0.779 ± 0.4
